# B1: GLT8D2 (parent)
# chain: QEAKLLHWNGRHKPWDFPSVHNDL
# B2: DVL3 (parent)
# chain: FPELGYSYGGGSASSQHSEGSRSS
# Variants of: B1
# Test: protein stability index of a GFP-peptide fusion (GPS, HEK-293T) (PSI 1-6); higher = more stable
# Conditions: c terminus: a fixed tail appended
# 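Note: lentivirally expressed fusions sorted by FACS into six bins by GFP to DsRed ratio, PSI derived from sequencing read proportions per bin multiplied by bin number.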
row,Variant,protein stability index
1,L24R,2.74
2,L24S,3.51
3,L24V,2.42
4,L24T,3.41
5,L24H,2.65
6,R11Y,2.28
7,R11W,2.18
8,R11Q,3.35
9,R11T,3.11
10,R11N,3.05
11,K13W,2.29
12,K13F,2.69
13,K13Y,2.43
14,K13P,3.04
15,K13A,2.85
16,W15Y,2.62
17,W15K,3.27
18,W15P,3.81
19,W15Q,4.37
20,W15I,3.02
21,W15V,3.49
22,H7E,2.98
23,H7N,2.54

row,Variant,protein stability index
1,H7P,2.94
2,H7I,2.25
3,H7G,2.63
4,H7M,2.56
5,A3I,2.24
6,A3K,2.59
7,A3M,3.06
8,A3W,2.24
9,D23G,2.23
10,D23E,2.72
11,D23I,2.27
12,D23R,1.88
13,D16N,2.42
14,D16Q,2.48
15,D16F,1.58
16,D16E,2.69
17,D16H,2.09
18,D16M,2.12
19,K4Y,2.13
20,K4N,2.68
21,K4G,2.89
22,K4E,3.28
23,K4S,2.99

row,Variant,protein stability index
1,K4V,2.34
2,K4L,2.56
3,G10R,2.79
4,G10T,2.49
5,L5V,2.58
6,L5T,2.81
7,L5W,2.59
8,L5C,2.77
9,L5K,3.14
10,L5N,2.67
11,L5A,3.04
12,P18K,2.99
13,P18W,1.8
14,P18Q,2.83
15,P18F,2.18
16,S19C,2.38
17,S19N,2.84
18,S19W,1.61
19,W8H,2.85
20,W8E,3.47
21,W8M,2.56
22,W8D,3.5
23,W8A,3.39

row,Variant,protein stability index
1,W8G,3.6
2,L6M,2.3
3,L6P,2.7
4,L6C,2.75
5,L6S,2.91
6,L6V,2.48
7,V20L,2.41
8,V20C,2.54
9,V20Q,3.17
10,V20I,2.78
11,V20E,3.63
12,E2Q,2.85
13,E2W,2.2
14,N22I,2.06
15,N22G,2.63
16,N22D,3.27
17,N22E,3.2
18,H21E,3.46
19,H21F,2.75
20,H21V,2.67
21,H21Q,2.94
22,F17I,3.1
23,F17Q,3.3

row,Variant,protein stability index
1,F17P,3.24
2,F17D,3.36
3,F17E,4.18
4,F17Y,2.81
5,H12L,2.45
6,H12R,2.77
7,H12S,2.77
8,H12F,2.13
9,P14A,2.62
10,P14N,2.66
11,N9D,2.87
12,N9E,2.73
13,N9K,2.92
14,N9C,2.41
15,N9P,2.56
16,N9M,2.1
17,N9I,2
18,N9S,2.67
19,Q1L,2.1
20,Q1Y,1.79
21,Q1V,2
22,Q1R,2.48
23,Q1D,3.54

# Variants of: B2
# Test: as above
# Conditions: c terminus: a fixed tail appended
row,Variant,protein stability index
1,G10P,3.3
2,G10F,2.22
3,G10W,1.89
4,G10I,2.81
5,G10R,2.74
6,G10Q,2.84
7,G10N,3.55
8,G10C,2.2
9,G10A,3.06
10,G10T,2.78
11,S12F,2.65
12,S12D,3.2
13,S12R,2.91
14,S12K,2.82
15,S12C,3.03
16,G5D,4.59
17,G5E,4.81
18,G5N,3.96
19,G5L,3.18
20,G5R,3.58
21,G5Q,4.39
22,G5W,1.61
23,G5H,3.08
24,G5F,2.33
25,S23Q,3.24

row,Variant,protein stability index
1,S23A,2.97
2,S23E,2.9
3,S23K,3.05
4,S23I,3.34
5,S23T,2.46
6,S23G,3.26
7,S23L,2.49
8,S23W,2.59
9,S23D,3.17
10,S23F,2.39
11,S23V,2.63
12,F1L,4.22
13,F1G,4.62
14,F1I,5.21
15,F1C,4.68
16,F1V,4.03
17,F1A,5.09
18,F1Q,5.03
19,F1S,4.99
20,F1D,5.2
21,F1H,4.96
22,F1M,4.38
23,G11L,2.57
24,G11R,3.5
25,G11M,2.73

row,Variant,protein stability index
1,G11N,2.98
2,G11Q,3.16
3,G11E,3.22
4,G11H,3.29
5,G11W,2.11
6,E3M,3.5
7,E3V,3.75
8,E3K,2.62
9,E3Q,3.16
10,E3L,3.87
11,E3G,2.12
12,E3R,3.41
13,E3N,2.63
14,E3D,2.67
15,E3F,2.93
16,E3W,2.99
17,S7Y,2.19
18,S7R,2.18
19,S7A,2.12
20,S7F,2.72
21,S7T,2.36
22,S7L,2.26
23,E19R,2.85
24,E19T,3.24
25,E19M,3.12

row,Variant,protein stability index
1,E19Q,2.66
2,E19L,2.06
3,E19S,3.16
4,E19F,3.64
5,G20D,3.7
6,G20S,3.18
7,G20Q,3.27
8,G20C,2.99
9,G20Y,2.64
10,G20K,3.06
11,G20H,2.9
12,G20P,2.94
13,G20I,2.73
14,L4Q,3.35
15,L4C,2.82
16,L4D,4.52
17,L4R,2.84
18,L4E,4.31
19,L4N,2.35
20,L4P,3.24
21,L4F,3.16
22,S18T,3.3
23,S18G,3.12
24,S18L,2.86
25,S18R,2.97

row,Variant,protein stability index
1,S18M,2.76
2,S18K,2.98
3,S18C,2.9
4,S18P,3.24
5,S18I,2.73
6,S18D,3.7
7,S14P,3.24
8,S14H,3.17
9,S14M,2.59
10,S14R,3.25
11,S14L,2.73
12,S14A,3.45
13,S14D,3.61
14,S14T,2.77
15,S14N,2.87
16,R22V,3.18
17,R22S,3.66
18,R22N,3.56
19,R22T,2.6
20,R22L,2.53
21,R22K,3.15
22,R22E,3.71
23,R22W,2.88
24,H17S,2.8
25,H17Q,2.83

row,Variant,protein stability index
1,H17I,2.74
2,H17L,2.77
3,H17E,3.29
4,H17C,3.1
5,P2W,3.2
6,P2Y,3.1
7,P2I,2.07
8,P2E,4.66
9,P2T,2.38
10,P2Q,3.02
11,A13T,3.31
12,A13V,3.12
13,A13G,3.04
14,A13R,3.12
15,A13Q,2.8
16,A13C,2.22
17,A13M,2.98
18,A13P,2.94
19,A13I,2.45
20,A13W,1.91
21,A13K,2.63
22,A13Y,2.49
23,A13H,2.73
24,S24N,3.56
25,S24D,3.24

row,Variant,protein stability index
1,S24W,1.95
2,S24F,2.57
3,S24G,3.01
4,S24I,2.37
5,S24H,3
6,S24M,2.97
7,S24C,2.99
8,S24T,2.92
9,S24P,3.93
10,S24L,2.94
11,Y6E,4.76
12,Y6H,3.77
13,Y6C,3.4
14,Y6L,3.53
15,Y6S,3.98
16,Y6V,3.75
17,Y6D,5.2
18,Y6F,2.32
19,Y6P,3.76
20,Y6W,1.66
21,Y6R,3.5
22,Y6A,3.87
23,Q16D,3.58
24,Q16H,3.12
25,Q16M,3.07

row,Variant,protein stability index
1,Q16W,2.27
2,Q16K,2.95
3,Q16E,3.22
4,Q16I,3.05
5,S15P,3.56
6,S15N,3.38
7,S15K,2.64
8,S15T,2.65
9,S15C,2.19
10,S15G,2.8
11,S15W,1.75
12,S15I,2.9
13,S15Y,2.73
14,S15M,2.74
15,S15L,3.16
16,G9S,3.27
17,G9K,3.18
18,G9T,3.32
19,G9D,4.05
20,G9I,2.22
21,G9F,2.43
22,G9W,1.58
23,G9M,2.49
24,G9H,2.93
25,G9Q,2.8

row,Variant,protein stability index
1,G9V,2.4
2,G9A,2.39
3,G9N,3.77
4,G9R,2.91
5,S21Q,3.41
6,S21W,2.29
7,S21I,2.83
8,S21T,3.24
9,S21F,2.56
10,S21E,3
11,S21Y,2.88
12,Y8P,3.97
13,Y8V,3.45
14,Y8E,4.71
15,Y8N,4.09
16,Y8W,2.82
17,Y8K,2.95
18,Y8I,2.58
19,Y8G,3.8

# Reference: the supplement of paper PMC10567573
